Biological target: CA1.CD2-P40 (CA1.CD2 PEGylated with P40) (rat) (UniProt P08921)
Assay: Western blot, CA1.CD2 PEGylated with P40

Chain of CA1.CD2-P40 (CA1.CD2 PEGylated with P40) (rat) (P08921 23-121 limits assumed): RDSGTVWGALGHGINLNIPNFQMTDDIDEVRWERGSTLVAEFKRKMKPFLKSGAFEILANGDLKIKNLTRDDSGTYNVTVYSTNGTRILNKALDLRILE

decrease of binding against unmodified CA1.CD2: 50%
Substance: OX34 antibody

From US20180250426A1
